Measured values reported in PMC1635730.

Columns and labels:
[1] = biological target: recombinant mesothelin expressed on human epidermoid epithelial A431 cells (human) (UniProt Q13421)
[2] = biological target: recombinant mesothelin expressed on human epidermoid epithelial A431 cells (human) (UniProt Q13421); remark: listed apart in the source
[3] = biological target: recombinant mesothelin tagged with the Fc fragment of rabbit IgG (human) (UniProt Q13421); experiment: flow cytometry on cells; inhibition: soluble MUC16 pre-incubated with meso-Fc (25 nM) for 1 h at 4°C; read out as meso-Fc left to bind OVCAR-3 cells
Sequence of recombinant mesothelin tagged with the Fc fragment of rabbit IgG (human) (Q13421 other isoform, or with tags, fused parts or gaps): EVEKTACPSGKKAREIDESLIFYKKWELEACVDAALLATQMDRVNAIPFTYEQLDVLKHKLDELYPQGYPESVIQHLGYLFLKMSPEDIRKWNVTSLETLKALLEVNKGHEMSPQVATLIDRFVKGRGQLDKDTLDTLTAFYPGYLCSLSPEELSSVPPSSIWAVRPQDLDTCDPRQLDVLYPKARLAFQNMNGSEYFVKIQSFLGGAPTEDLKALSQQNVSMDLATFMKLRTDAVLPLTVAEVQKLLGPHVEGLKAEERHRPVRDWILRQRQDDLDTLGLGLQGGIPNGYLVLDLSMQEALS

Sequence of recombinant mesothelin expressed on human epidermoid epithelial A431 cells (human) (Q13421 other isoform, or with tags, fused parts or gaps): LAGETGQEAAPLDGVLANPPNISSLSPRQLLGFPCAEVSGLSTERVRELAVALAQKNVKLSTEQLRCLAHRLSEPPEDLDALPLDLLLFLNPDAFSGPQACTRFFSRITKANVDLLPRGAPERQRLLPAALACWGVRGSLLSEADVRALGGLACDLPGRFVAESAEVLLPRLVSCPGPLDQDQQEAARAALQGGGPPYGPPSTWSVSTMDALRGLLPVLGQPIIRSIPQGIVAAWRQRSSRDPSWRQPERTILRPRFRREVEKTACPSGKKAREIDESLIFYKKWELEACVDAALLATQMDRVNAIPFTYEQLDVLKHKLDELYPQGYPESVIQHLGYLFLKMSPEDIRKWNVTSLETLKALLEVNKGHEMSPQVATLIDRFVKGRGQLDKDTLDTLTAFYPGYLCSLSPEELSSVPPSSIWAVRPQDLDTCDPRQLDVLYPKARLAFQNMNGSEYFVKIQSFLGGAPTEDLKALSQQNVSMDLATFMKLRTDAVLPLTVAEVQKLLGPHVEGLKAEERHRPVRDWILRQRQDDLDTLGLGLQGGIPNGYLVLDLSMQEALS

| heterotypic doublets between MUC16 positive #12 cells and A431-Meso+ cells in PBS with 1% BSA, percent of total live cells, flow cytometry [1] [%] | reduction of heterotypic cell adhesion between #12 and A431-Meso+ cells by ascites of EOC patients (#15 and #24), flow cytometry [2] [%] | percent inhibition of meso-Fc binding to OVCAR-3 cells (MUC16 at half the molar amount of meso-Fc) [3] [%] | Substance |
| --- | --- | --- | --- |
| 25 | 33 |  | MUC16 expressed on the surface of the ovarian tumor cell line OVCAR-3, Q8WXI7 1-14507 |
|  |  | 80 | native MUC16 partially purified from OVCAR-3 cell culture media, Q8WXI7 1-14451 |
